Assay: soluble fraction after stress (log2 fold change); higher = more stays soluble; pooled small domains, quantitative proteomics
Conditions: stress: 50 degC
Procedure, shortened: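 The stress applied to every library was 50°C. These custom libraries of small protein domains were pooled and measured at high throughput with quantitative proteomics as the read-out. Aggregation propensity is expressed as the base-two logarithm of the fold change in how much of each protein remains soluble. The higher the value, the more of that protein stays in solution.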

HMAVKLELYRVFKEVAETGNISAAAKNLYISQSAVSQSIKQLETALQARLFARSPRGVTLTGEGQMLYQYV
soluble fraction (log2): -1.44

HMYPFSEETLKEKIREYLKTNRSINRRVLEREFYIRKQTALNWLNRLVDSGFLIKEGVRNSPVYFLAE
soluble fraction (log2): -0.691

HMAPRDKADKYVAAGIAEELVPILQKVGYYLVTDLKDVKAQKIQQQIGEIIKKYKLDIEKPSVQDIEGWN
soluble fraction (log2): 0.0612

HMEWLENIKKLKKEKGLTNESLSEKSGISVGTLNKLLSGATTDPKLSTLRPLADALEVSLDELLAI
soluble fraction (log2): 0.166

HMDSTLTNEIYNELYRAITHQELKPGQNLTLTMLKKQFNVSHTPIREALTRLSADGLVTYHPNKGMKVT
soluble fraction (log2): -0.274

HMIEFYTMQDMFYFKLTGDNTSRERREALGKILGIGYGNATQMVSRLNNYGISKEEFSKAIEEIEKQLEA
soluble fraction (log2): -2.8

HMKQLRVLGIVKAGSILKNSDGSIEFVIEDSGKSLLVKYKGVIPDIFKDGVEAVVEGDLRGSVFNADKLF
soluble fraction (log2): -0.75

HMSPILTPDQATKAYGKDGVLYIHSNKERTIYIYDVTGRTVRILEAVEGENQINGLEKGIYFLEGQKVAV
soluble fraction (log2): -0.233

HMGSRRFGDSNHAAKLTEEQVVEIRELAAAGATTKFLAEMVGMHPNYVGLILRGLSWPEAGGPLRVA
soluble fraction (log2): 0.11

HMLNDTGAIRAAVEEVLAANEKSVNEYKGGKTQAFQYLIGQSMRALRGKAPAQEVTKLLKELLG
soluble fraction (log2): -0.263

HMEWEVHSVTVTPELSGERLDVAATALLSQFSRALVQRWIDANELTLNERPVKAKSKVRVGDLIAVKAK
soluble fraction (log2): -0.874

HMNTYEIIGGDNRARGPVTGEELSQWIREGRASGHTMARVSDGEHWQPLGSFPEFVGPLQGLPW
soluble fraction (log2): 0.127

HMATVIDVATTLGRPITDPDEQRQVLNWIGKTERIISARLGDLAALDRQILADVISEVVARRARN
soluble fraction (log2): -0.4

HMGDLVKGKVVGYDPDNVIVDIGAKTNALVPNREAVVEAGDDIKETLKKGNEYEFLIIRDEDEEGEFL
soluble fraction (log2): 0.29

HMSDPTDRLVLEAALKALGEEERQVVLLHAASGLKHREIARDLGLPLSTVLSRYSRALKKLQRYLTEEGVH
soluble fraction (log2): -0.77

HMTTSNPMNVTSAEAAFDNGTDRLNAFISGRTTSEERSTYFPLFVRETKEDFLRAVGRFNEYIANHG
soluble fraction (log2): 0.0364

HMDSGINVWASAEGLTITADKDTTVYVYDIYGRTIHTSEVKAGTSDIAINTKGIVIVKANGYTKKII
soluble fraction (log2): -1

HMVDIEQAEFLSRQFDLLLARLDDPTIEWQDIADIRSEYTGENEHRDTIRKGSKLFYEYLQAGWIKN
soluble fraction (log2): -0.748

HMTPGPFLVYITGAVERPNVLVTLDYGSRVIDALNAAGGSRIDANLDLVNLAQRLVDGDQIHVPTLR
soluble fraction (log2): -1.28

HMKNIFDWLKQINYHKQPADSFTEKDWELFNSYMVHRFMSMNREFIEVVNYVQEMPPQEKILIYNIYREF
soluble fraction (log2): -1.02

HMQVSITGYLGGEKIGLFDDAKFKALAAKQGIAIDYRKAGSPAMMDADRKGMDYLFPSSRAAVEYGNAKGV
soluble fraction (log2): -0.009

HMRRGFGYVRKLPSGRWQASFVGPDLARHSAPHTFETKGDAEGWLGRRQADVVAGEWRPPVP
soluble fraction (log2): 0.205

HMSYQADEIKEKLIDILQNQKTGLSGLEISERIGINRITMTKYLQVFAAEGFIKQKNIGNVIIWFIEDGTE
soluble fraction (log2): -0.181

HMHDYNTIVGVIEMRDKNIPLTSIRQRYGIGYSGIDLILTRYKDSGLTLKEFLALDPSQAEELIYPPK
soluble fraction (log2): -0.622

HMFSPSDEDLELAHRQIRAFEEVEANGKSIAVVDGRIVESLHIVTARDTLEKAKAITALAEEM
soluble fraction (log2): 0.115

HMNDPIESLTPREREVLTLMAEGRTNAAIAAQLVVTEGAVEKHTQHIFAKLGLLPDSAVHRRVKAVLALLS
soluble fraction (log2): -1.75

HMTLRDRDQALEELWGQLADVPMDSETERLLEPFMGWGVGVSRDEIWHWFDRRHSKGIGHLLYS
soluble fraction (log2): -1.55

HMEDIASESVKRVIRKIIDDEDKKSPLSDQAIVEILAKGEGIVIARRTVAKYREMMGILPSSKRKKH
soluble fraction (log2): -0.209

HMEDEAVMQLPLSELKGLSPELLAILNGAGYEKLKDVLDLEREDIERIPGMTPERNEQLVAFLAELTE
soluble fraction (log2): 0.0689

HMLSDLTPGDLVVHATHGIGRFLGIRKLELEGMTKDYITIQYRGNENLYVPVTQMDLVSRYI
soluble fraction (log2): -0.292

HMNNEISINGNKIYFNKNISKVFIYDISGKLIKHKNNFNNNFIDLSEFNSAFYIIKALDINENYTTKKIFL
soluble fraction (log2): -1.58

HMAGTWQDQGNGQWKYQNDDGSYATGWIEDSGKSYYLDANGIMLANTTTPDGKQVGPDGALIP
soluble fraction (log2): -0.141

HMNHLSYEQRLKIKEMLDGGFKKIDIARALGVHNATIYREIERGSVNGIYNPNKSEEQYRDHLSEK
soluble fraction (log2): 0.255

HMFTEEEMTKLRHELILAGIRLSRELGLQRMSVEKITSAVGIAKGSFYIFFDSKEDFILEIADHANRE
soluble fraction (log2): -1.06

HMSAETRSWTDAQGNQTQAVLRGFDGGDVLLQNAAGKTLRVPVKNLSEDDQRYVVLNISTLID
soluble fraction (log2): 0.0786

HMLPLLEYLDPFTGKKTYTYLNPDTQHPIFTYYSYQDDKTGRTAYSYIDPLTGKAVNSDEPPMDILYD
soluble fraction (log2): -0.441

HMSVLSEQIKEQLMEDIFHKKYKAGDRIVESALARELGVSQASVREALRSLIAMGFLENEPFKGITVR
soluble fraction (log2): 0.0703

HMSQTDQALRHLIREAWATLPQRQQQAVELAYYEGLPDTEIAARLNQPVEEVKTSIVLGMAHLREALHSY
soluble fraction (log2): -0.583

HMPIHAGERLTLRLAGEGREAGQAIGYLEDGTLVIVERARHLIGQDVTVEVTRTLQTAGGRLVFAHLVE
soluble fraction (log2): -0.531

HMGLNEGLNEGQQKVIQHIQENEGIKVKEISLKLNMPIDTVDRHIRVLKNLNLIERRGSRKTGGYFISN
soluble fraction (log2): -0.266

HMDPPVDLTPREQQVLSRIALGMSDKAIAAELGVSHQTVRNHVARIYAKIKVHSRSQAIVWAREKGIP
soluble fraction (log2): -0.185

HMDSINIDEETAKLGPNAPQIIDGIKKWGQGLVAKGVWSDEDFDEFKVFAATSSGINALNKIRKYY
soluble fraction (log2): 0.0428

HMTTPDIIVPDVKGMTVAEAQKALEEKGFKVKLEEMTQEGAVPGDVIRIDPVAGTKRKEGAKITLLIARG
soluble fraction (log2): 0.161

HMKTEVNITPGIIDWIERYVQTDKISSSMTEDFQHWKSGTKKPTFNQVEAFSKAINVPLGYFFLKTPPAE
soluble fraction (log2): -0.302

HMVLTSFHDNFPKTGTTYTVRSGDTISGIATKFGSTRDWIQNANEISHPKYLQVGRTLFIPH
soluble fraction (log2): -0.203

HMIADPAKPDWTTILAPVTTGTTVTHKTFGQGTVTKLDKTKKYLTVSFAAGQKNFVFPNAFIDGFLK
soluble fraction (log2): 0.203

HMEMNPLDIQNKAAELAQQWLQLPVGERQKQMAAVRTSNPNLHAMAKQKMEEMRSQAESQGRQSLSQP
soluble fraction (log2): 0.0359

HMDRKFFFNEQYEDYINSDLKVKFMNDSGSKKSFQGELTKVTPSDLFLESEKESVKVPFSSIIQANLI
soluble fraction (log2): -0.147

HMAPLAVIFPEPWRGMIAPEKLEGLTQALSLNPRPGYQHDPTRRYGVSLDGLDVRFTIDGDTLTVVEVVT
soluble fraction (log2): -0.635

HMGAYITYEVKPGDTLWDIANKFPGVSADNIKTWNKVDELIKAGERLKINTQTITDYSPDKYPS
soluble fraction (log2): -0.221

HMEDVDLFTKAMAALPNRYRDILLLRYSHGYTVEEISDILSMKPENVKKTIQRARKKLGEILEAEG
soluble fraction (log2): -0.654

HMLDPKVFVGKAGINEGIAKLLLQAFDKADLVKVRFTAERDVMETQMQELARLTGSEVIGNVGRTATF
soluble fraction (log2): -0.00291

HMKSERHALILSLIEKKNVETQEDLAELLKERGVAVTQATVSRDIKELRLIKVLSETGGYKYATVDKAE
soluble fraction (log2): -0.103

HMKLNETIAEARKRKGLTQEQLAQKLYVTRQAVSRWERGEVVPGIDMLKLIAITLEEPIVHLL
soluble fraction (log2): -0.769

HMKSYQKITPATEGNYLTTYREGDDIKTYEGVKAMYTPADFDASSVREITPEEHQSYQKAKEQALQEETEQ
soluble fraction (log2): -0.225

HMTPPAQQPHEGLPTDETATDAKTLVQKSRWWLEEEQRQREAGNTAYAERIRLALIQLLYRAERA
soluble fraction (log2): 0.0784

HMTEELQDMESRIIEAAKRVFVRKGYEATKMSDIALEVGLGRTALHYYFRTKEMLFDAIFGRLMGV
soluble fraction (log2): -0.385

HMYVPEVPVPDLLGRSEEEAKNLIEDLGLVFKVSKREYSKEYDEGHVMEQSVDEGAKVKENYPVEVVISR
soluble fraction (log2): 0.196

HMETIELSAPGGVRLDKLIADGTELSRSAAVKLIEQGNVLVNGSPAGKKDIPAAGAAVEITLPEPQ
soluble fraction (log2): -0.134

HMRDVVVVPDLSGLTQMEALSKLDAESLNIGEINYGVSEMPEGVIFKQDPVYGTELMKGDTVDIFISGR
soluble fraction (log2): -0.527

HMETIGKRVRAARQELGLTMKQLHEQTGLSTGNISDIENDRNTPSVSSLVALGRALRRSLDWLLTGEE
soluble fraction (log2): -0.252

HMGAAFITSSKDNAINIRQSANTDSKVIETVTNGQILESNEKSGEWHKVTYYDNDIKKSFTGYVHEGQLK
soluble fraction (log2): 0.125

HMEFLDQAFLHETMRKVNQDATINLLKKVYEVPQKFIGRKVTVQYDPEDLSRVYVKDLSFPEPVTVYPV
soluble fraction (log2): -0.0595

HMDGIRLYPGLMIEHKNFGRGQVVSVNRERGTFTAFFGKNGTRTLTIQILKTDTVRPLASQKAGK
soluble fraction (log2): 0.212

HMKEQLLLGFKVRSLRGIDLGFVKFIEGSAFQSFLKTDLTIIPNVPNYVKKIDNVKKIILVDWESD
soluble fraction (log2): -2.69

HMFVNADEIAKGLSPFNPSSVAIEAGRLMLKRIGELLSAGVSFSVETTLSTRSYINLIQQAQNQGYSVSL
soluble fraction (log2): ≥ 0.62

HMAKKDVESTLGGRLRVARVRAGLTQVELARMLGMNSVSLSNVEGGRRGLSMKQLVRVAKILEVPVAYLLG
soluble fraction (log2): -1.65

HMSNMWVWSKLSGIQWMDAWEDRFHGNPNTVITRLKTNKTVRVEVYTETEQEALDIKKLFGGSIRKLV
soluble fraction (log2): -2.96

HMISQATMEKMGLTNRERQLVDFIVRGASNQEISEKMFISINTVKIHVSNIFRKAGVRSRTELMDKYP
soluble fraction (log2): -3.49

HMNRIFQERVVPAELDTLRADKVAASLFSDFSRNELAHWIKMGDLSINGGVKKAKDKLFEGDVLILDVEIV
soluble fraction (log2): -0.798

HMSASIAEGTVIMLENTTNIRSGMSEDSSKVGTAYAGEKVTVVMSYAEGWTKVKWNGETGYIKTALLQL
soluble fraction (log2): -0.212

HMFWRKIDFYGLNLSTYRNIINIGSDYNYIYLDLGNIYKILNPITGKIIEEQDLVMNIDNINWSS
soluble fraction (log2): -0.0971

HMGAKLTTAQGGTLKVLVKGKKTHTPTIELRDKDPDFPNAKVVQPDINKGNKQIAHGINGVL
soluble fraction (log2): 0.514

HMYDKKVFRLLFILNQLDSRKKVSTGELAKEFNVSPRTVQRDIVLLNTTGFPIISLEKGYHSFMEGFSLK
soluble fraction (log2): -1.12

HMVDYIGRRGVMLSTVSEEKMGNAEVVIDGNSYNIYVKSLDGSTIAYHQEILIINKSKDNNYFLVQIY
soluble fraction (log2): -2.63

Source: the domain aggregation screens of Martell et al. (2025)
